The record followed here is patent EP1160320A1 (INSTITUT NATIONAL DE LA SANTE ET DE LA RECHERCHE MEDICALE …, dated 2001).

The assay has as its target T1, hTAFII80δ (human, UniProt P49848 1-677).
T1 construct: Endogenous protein immunoprecipitated from HeLa extracts; also called hTAFII80 delta; δ isoform of hTAFII80
As to the kind of experiment: co-immunoprecipitation of endogenous hTAFII80δ complexes from HeLa cells, immunoblot. (In general: A western blot detects proteins with antibodies after separation by electrophoresis.)

T1 sequence (P49848 other isoform, or with tags, fused parts or gaps mutant limits assumed): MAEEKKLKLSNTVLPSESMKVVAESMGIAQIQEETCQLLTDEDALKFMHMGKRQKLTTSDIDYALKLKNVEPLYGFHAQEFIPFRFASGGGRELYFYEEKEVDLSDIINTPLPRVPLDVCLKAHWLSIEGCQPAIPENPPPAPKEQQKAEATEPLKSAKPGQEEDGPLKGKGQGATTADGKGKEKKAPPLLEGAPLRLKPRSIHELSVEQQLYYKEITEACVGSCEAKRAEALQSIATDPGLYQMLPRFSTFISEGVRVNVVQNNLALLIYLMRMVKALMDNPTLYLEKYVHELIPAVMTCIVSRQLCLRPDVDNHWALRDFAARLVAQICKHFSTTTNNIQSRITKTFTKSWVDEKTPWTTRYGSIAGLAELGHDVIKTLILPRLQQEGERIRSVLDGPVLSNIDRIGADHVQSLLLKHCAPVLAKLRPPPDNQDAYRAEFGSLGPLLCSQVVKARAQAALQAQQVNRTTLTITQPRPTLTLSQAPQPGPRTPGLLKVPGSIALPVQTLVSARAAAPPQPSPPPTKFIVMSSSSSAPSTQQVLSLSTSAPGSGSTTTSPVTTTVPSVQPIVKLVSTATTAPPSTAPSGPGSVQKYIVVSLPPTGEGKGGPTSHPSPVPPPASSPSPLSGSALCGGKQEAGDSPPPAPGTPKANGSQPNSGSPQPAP

B1: hTAFII31 (other, human, UniProt Q16594 1-264, looked up)
chain: MESGKTASPKSMPKDAQMMAQILKDMGITEYEPRVINQMLEFAFRYVTTILDDAKIYSSHAKKATVDADDVRLAIQCRADQSFTSPPPRDFLLDIARQRNQTPLPLIKPYSGPRLPPDRYCLTAPNYRLKSLQKKASTSAGRITVPRLSVGSVTSRPSTPTLGTPTPQTMSVSTKVGTPMSLTGQRFTVQMPTSQSPAVKASIPATSAVQNVLINPSLIGSKNILITTNMMSSQNTANESSNALKRKREDDDDDDDDDDDYDNL
notes: Baculovirus-produced in SF9 extracts for the pull-down; endogenous in HeLa cells for the co-immunoprecipitation; No tag is stated; also called recombinant hTAFII31; histone H3-like hTAFII31
For B1, the binding result is “no binding”.
